Data from patent publication US6187552A, “Method for identifying inhibitors of JAK2/cytokine receptor binding” (Pharmacia & Upjohn Company, priority 1998, dated 2001).

Target: JAK2 (Homo sapiens, UniProt O60674)
Assay: SPA competition: soluble peptide/streptavidin against peptide 4-coated SPA beads for binding 3H-JAK2
Design: Y918N clone error corrected to Tyr
Source text: FIGS. 20 A and B illustrate a test of the ability of streptavidin-peptide 4 complexes to compete for binding of 3H-JAK2 to peptide 4-coated SPA beads. For A, #0 is a beads only control. In all reactions with peptide bound to beads, excess peptide 4 [SEQ ID NO:14] was bound to beads before adding soluble samples. The reaction in #1 is peptide 4 [SEQ ID NO:14] bound to beads only, no added peptide 4 [SEQ ID NO:14] or streptavidin. #2 contained soluble peptide 4/streptavidin at a ratio of 1:1. #3 contained soluble peptide 4/streptavidin at a ratio of 4:1. #4 contained 20 μM peptide 4 added as soluble peptide 4. #5 contained 20 μM streptavidin. […] For B, 0 is a beads only control. In all reactions with peptide bound to beads, excess peptide 4 was bound to beads in the presence of 1 mg/ml κ-casein (as described in Materials and Methods of Example 8) before adding soluble samples. The reaction in #1 is peptide 4 bound to beads only, no added peptide 4 or streptavidin. #2 contained peptide 1/streptavidin at a ratio of 4:1 and #3 contained peptide 4/streptavidin at a ratio of 4:1.
The assay was set up in 96-well plates (Wallac, catalog # 1450-401), Turku, Finland, using a total assay volume of 200, μl/well. Triplicate reactions were done for each data point. The buffer used in all the assays was 35 mM sodium phosphate, 150 mM NaCl, pH 8.0, 10% glycerol. Biotinylated peptides were allowed to bind to streptavidin-coated SPA beads (Amersham Life Sciences, Arlington Heights, Ill., catalog # RPNQ0006) with either less than saturating peptide or excess peptide. For 400 μg SPA beads used per reaction, there was the capacity to bind 49 pmole of biotin (given the binding capacity of 121 pmole biotin/mg bead). Under less than saturating conditions, beads and 40 pmole peptide were added to the assay plate well and incubated for one hour with gentle shaking on a Titer plate shaker (Lab-Line Instruments, Inc., Melrose Park, Ill.) at 600 rpm and not washed. Under conditions of excess peptide, beads and peptide (80 pmole of peptide per 400 μg of bead) were mixed in batch with or without 1 mg/ml K-casein added as described in Results and Discussion, incubated for one hour with rotation, washed three times with buffer and aliquotted into wells. ^3 H-JAK2 or ^3 H-NJAK2 and any other components to be tested were added and the reactions were mixed and incubated for one hour in the dark at room temperature. The plates were then read on a MicroBeta (Wallac) set to read scintillation due to tritium.
The ability of excess peptide 4 [SEQ ID NO: 14] to compete for binding of JAK2 was tested. Biotinylated peptide 4 was bound to streptavidin in solution to mimic the conditions of the peptide 4 bound to the beads. It was used at a ratio of 1:1 (peptide 4: streptavidin) and at a ratio of 4:1 to see whether having multiple peptides on one streptavidin molecule might do a better job of binding JAK2 and therefore of competing. […] This could be due to the free streptavidin pulling some of the peptide 4 [SEQ ID NO: 14] off the bead. […] Another SPA was done using peptide 4 [SEQ ID NO:14] or peptide 1 [SEQ ID NO:11] bound to streptavidin at a ratio of 4:1. […] The results are shown in panel B of FIG. 20.

Chain of JAK2 (O60674 3-1132): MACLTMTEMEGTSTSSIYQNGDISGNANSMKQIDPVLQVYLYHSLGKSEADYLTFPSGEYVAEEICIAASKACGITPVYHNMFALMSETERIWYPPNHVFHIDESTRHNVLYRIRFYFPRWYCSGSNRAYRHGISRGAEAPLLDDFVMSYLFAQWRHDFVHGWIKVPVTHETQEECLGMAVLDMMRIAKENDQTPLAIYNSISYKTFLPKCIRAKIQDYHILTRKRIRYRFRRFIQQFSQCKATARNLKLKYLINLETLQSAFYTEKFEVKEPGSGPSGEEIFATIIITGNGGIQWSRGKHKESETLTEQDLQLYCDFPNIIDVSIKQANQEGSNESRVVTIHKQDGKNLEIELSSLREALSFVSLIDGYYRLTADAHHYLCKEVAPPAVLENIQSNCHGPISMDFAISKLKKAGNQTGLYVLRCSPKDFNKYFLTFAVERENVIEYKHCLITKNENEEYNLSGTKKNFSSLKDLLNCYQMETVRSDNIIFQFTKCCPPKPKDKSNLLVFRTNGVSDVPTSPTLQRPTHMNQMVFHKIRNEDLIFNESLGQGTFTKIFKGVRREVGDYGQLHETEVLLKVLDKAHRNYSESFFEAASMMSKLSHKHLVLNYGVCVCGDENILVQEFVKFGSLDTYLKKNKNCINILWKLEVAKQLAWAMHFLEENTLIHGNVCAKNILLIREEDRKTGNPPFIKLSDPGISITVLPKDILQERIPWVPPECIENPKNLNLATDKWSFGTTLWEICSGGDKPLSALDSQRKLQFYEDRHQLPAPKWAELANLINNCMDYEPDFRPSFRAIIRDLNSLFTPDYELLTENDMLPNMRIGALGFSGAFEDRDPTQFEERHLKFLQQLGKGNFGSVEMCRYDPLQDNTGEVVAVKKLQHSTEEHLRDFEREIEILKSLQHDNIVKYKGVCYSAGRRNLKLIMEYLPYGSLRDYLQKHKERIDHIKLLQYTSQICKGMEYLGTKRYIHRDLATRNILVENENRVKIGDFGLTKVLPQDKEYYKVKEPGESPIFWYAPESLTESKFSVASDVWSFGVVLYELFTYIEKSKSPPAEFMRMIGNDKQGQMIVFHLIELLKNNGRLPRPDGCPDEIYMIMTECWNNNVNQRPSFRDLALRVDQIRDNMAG

GIYGYRLRRKWEEKIPNPSKSHLFQNGSAELWP [peptide 4, βc peptide, N-terminal truncation]
binding of JAK2 by peptide in solution (conclusion from FIG. 20): binds JAK2 very poorly
competition by peptide in solution, bound to streptavidin or not (conclusion from FIG. 20A): competes poorly
competition for binding of JAK2 (peptide/streptavidin 4:1, beads with 1 mg/ml κ-casein, FIG. 20B): does compete for binding JAK2 but very weakly
competition for binding of JAK2 (soluble peptide 4/streptavidin 1:1 and 4:1, no κ-casein, FIG. 20A): only minimal, if any, competition was seen
